B1: AtRLP23-AtBAK1-3×FLAG: AtRLP23 apoplastic and eJM domains, AtBAK1 TM and cytoplasmic domains, 3×FLAG; SEQ ID NO: 25, 26 (protein)
chain: MSKALLHLHFLSLFLLCCVCHSSIFTLNFHFTGIVACRPHQIQAFTKFTNEFDTRGCNNSDTFNGVWCDNSTGAVAVLQLRKCLSGTLKSNSSLFGFHQLRYVDLQNNNLTSSSLPSGFGNLKRLEGLFLSSNGFLGQVPSSFSNLTMLAQLDLSYNKLTGSFPLVRGLRKLIVLDLSYNHFSGTLNPNSSLFELHQLRYLNLAFNNFSSSLPSKFGNLHRLENLILSSNGFSGQVPSTISNLTRLTKLYLDQNKLTSSFPLVQNLTNLYELDLSYNKFFGVIPSSLLTLPFLAHLALRENNLAGSVEVSNSSTSSRLEIMYLGSNHFEGQILEPISKLINLKHLDLSFLNTSYPIDLKLFSSLKSLRSLDLSGNSISSASLSSDSYIPLTLEMLTLRHCDINEFPNILKTLKELVYIDISNNRMKGKIPEWLWSLPLLQSVTLGNNYFTGFQGSAEILVNSSVLLLYLDSNNFEGALPDLPLSIKGFGVASNSFTSEIPLSICNRSSLAAIDLSYNNFTGPIPPCLRNLELVYLRNNNLEGSIPDALCDGASLRTLDVSHNRLTGKLPRSFVNCSSLKFLSVINNRIEDTFPFWLKALPNLQVLTLRSNRFYGPISPPHQGPLGFPELRIFEISDNKFTGSLPPNYFVNWKASSRTMNQDGGLYMVYEEKLFDEGGYGYTDALDLQYKGLHMEQAKALTSYAAIDFSGNRLEGQIPESIGLLKALIAVNISNNAFTGHIPLSMANLENLESLDMSRNQLSGTIPNGLGSISFLAYINVSHNQLTGEIPQGTQITGQSKSSFEGNAGLCGLPLKESCFGTGAPPMYHQKQEDKEEEEEEEEEEEEVLNGRITGAIAGGVAAGAALLFAVPAIALAWWRRKKPQDHFFDVPAEEDPEVHLGQLKRFSLRELQVASDNFSNKNILGRGGFGKVYKGRLADGTLVAVKRLKEERTQGGELQFQTEVEMISMAVHRNLLRLRGFCMTPTERLLVYPYMANGSVASCLRERPESQPPLDWPKRQRIALGSARGLAYLHDHCDPKIIHRDVKAANILLDEEFEAVVGDFGLAKLMDYKDTHVTTAVRGTIGHIAPEYLSTGKSSEKTDVFGYGVMLLELITGQRAFDLARLANDDDVMLLDWVKGLLKEKKLEALVDVDLQGNYKDEEVEQLIQVALLCTQSSPMERPKMSEVVRMLEGDGLAERWEEWQKEEMFRQDFNYPTHHPAVSGWIIGDSTSQIENEYPSGPRSDYKDHDGDYKDHDLDAAAADYKDDDDK
modifications: Fusion protein
B2: AtRLP23-eJMVe1-3×FLAG: AtRLP23 with the SlVe1 eJM domain, 3×FLAG; SEQ ID NO: 53, 54 (protein)
chain: MSKALLHLHFLSLFLLCCVCHSSIFTLNFHFTGIVACRPHQIQAFTKFTNEFDTRGCNNSDTFNGVWCDNSTGAVAVLQLRKCLSGTLKSNSSLFGFHQLRYVDLQNNNLTSSSLPSGFGNLKRLEGLFLSSNGFLGQVPSSFSNLTMLAQLDLSYNKLTGSFPLVRGLRKLIVLDLSYNHFSGTLNPNSSLFELHQLRYLNLAFNNFSSSLPSKFGNLHRLENLILSSNGFSGQVPSTISNLTRLTKLYLDQNKLTSSFPLVQNLTNLYELDLSYNKFFGVIPSSLLTLPFLAHLALRENNLAGSVEVSNSSTSSRLEIMYLGSNHFEGQILEPISKLINLKHLDLSFLNTSYPIDLKLFSSLKSLRSLDLSGNSISSASLSSDSYIPLTLEMLTLRHCDINEFPNILKTLKELVYIDISNNRMKGKIPEWLWSLPLLQSVTLGNNYFTGFQGSAEILVNSSVLLLYLDSNNFEGALPDLPLSIKGFGVASNSFTSEIPLSICNRSSLAAIDLSYNNFTGPIPPCLRNLELVYLRNNNLEGSIPDALCDGASLRTLDVSHNRLTGKLPRSFVNCSSLKFLSVINNRIEDTFPFWLKALPNLQVLTLRSNRFYGPISPPHQGPLGFPELRIFEISDNKFTGSLPPNYFVNWKASSRTMNQDGGLYMVYEEKLFDEGGYGYTDALDLQYKGLHMEQAKALTSYAAIDFSGNRLEGQIPESIGLLKALIAVNISNNAFTGHIPLSMANLENLESLDMSRNQLSGTIPNGLGSISFLAYINVSHNQLTGEIPQGTQITGQSKSSFEGNAGLCGLPLKESCFGTGAPPMYHQKQEDESLPPPTPLPDSDDEWEAVAIGYGSGLLLGLAIAQVIASYKPEWLVKIIGLNKRRKRSDYKDHDGDYKDHDLDAAAADYKDDDDK
modifications: Fusion protein
B3: AtRLP23-eJMAtRLP1-3×FLAG: AtRLP23 with the AtRLP1 eJM domain, 3×FLAG; SEQ ID NO: 49, 50 (protein)
chain: MSKALLHLHFLSLFLLCCVCHSSIFTLNFHFTGIVACRPHQIQAFTKFTNEFDTRGCNNSDTFNGVWCDNSTGAVAVLQLRKCLSGTLKSNSSLFGFHQLRYVDLQNNNLTSSSLPSGFGNLKRLEGLFLSSNGFLGQVPSSFSNLTMLAQLDLSYNKLTGSFPLVRGLRKLIVLDLSYNHFSGTLNPNSSLFELHQLRYLNLAFNNFSSSLPSKFGNLHRLENLILSSNGFSGQVPSTISNLTRLTKLYLDQNKLTSSFPLVQNLTNLYELDLSYNKFFGVIPSSLLTLPFLAHLALRENNLAGSVEVSNSSTSSRLEIMYLGSNHFEGQILEPISKLINLKHLDLSFLNTSYPIDLKLFSSLKSLRSLDLSGNSISSASLSSDSYIPLTLEMLTLRHCDINEFPNILKTLKELVYIDISNNRMKGKIPEWLWSLPLLQSVTLGNNYFTGFQGSAEILVNSSVLLLYLDSNNFEGALPDLPLSIKGFGVASNSFTSEIPLSICNRSSLAAIDLSYNNFTGPIPPCLRNLELVYLRNNNLEGSIPDALCDGASLRTLDVSHNRLTGKLPRSFVNCSSLKFLSVINNRIEDTFPFWLKALPNLQVLTLRSNRFYGPISPPHQGPLGFPELRIFEISDNKFTGSLPPNYFVNWKASSRTMNQDGGLYMVYEEKLFDEGGYGYTDALDLQYKGLHMEQAKALTSYAAIDFSGNRLEGQIPESIGLLKALIAVNISNNAFTGHIPLSMANLENLESLDMSRNQLSGTIPNGLGSISFLAYINVSHNQLTGEIPQGTQITGQSKSSFEGNAGLCGLPLKESCFGTGAPPMYHQKQEDTHAKEEENEEEGNVIDAVAIGYGSGLLLGLAIAQVIASYKPEWLVKIIGLNKRRKRSDYKDHDGDYKDHDLDAAAADYKDDDDK
modifications: Fusion protein
B4: AtRLP23-eJM(EEEE/ADQ−)-3×FLAG (protein)
chain: SIFTLNFHFTGIVACRPHQIQAFTKFTNEFDTRGCNNSDTFNGVWCDNSTGAVAVLQLRKCLSGTLKSNSSLFGFHQLRYVDLQNNNLTSSSLPSGFGNLKRLEGLFLSSNGFLGQVPSSFSNLTMLAQLDLSYNKLTGSFPLVRGLRKLIVLDLSYNHFSGTLNPNSSLFELHQLRYLNLAFNNFSSSLPSKFGNLHRLENLILSSNGFSGQVPSTISNLTRLTKLYLDQNKLTSSFPLVQNLTNLYELDLSYNKFFGVIPSSLLTLPFLAHLALRENNLAGSVEVSNSSTSSRLEIMYLGSNHFEGQILEPISKLINLKHLDLSFLNTSYPIDLKLFSSLKSLRSLDLSGNSISSASLSSDSYIPLTLEMLTLRHCDINEFPNILKTLKELVYIDISNNRMKGKIPEWLWSLPLLQSVTLGNNYFTGFQGSAEILVNSSVLLLYLDSNNFEGALPDLPLSIKGFGVASNSFTSEIPLSICNRSSLAAIDLSYNNFTGPIPPCLRNLELVYLRNNNLEGSIPDALCDGASLRTLDVSHNRLTGKLPRSFVNCSSLKFLSVINNRIEDTFPFWLKALPNLQVLTLRSNRFYGPISPPHQGPLGFPELRIFEISDNKFTGSLPPNYFVNWKASSRTMNQDGGLYMVYEEKLFDEGGYGYTDALDLQYKGLHMEQAKALTSYAAIDFSGNRLEGQIPESIGLLKALIAVNISNNAFTGHIPLSMANLENLESLDMSRNQLSGTIPNGLGSISFLAYINVSHNQLTGEIPQGTQITGQSKSSFEGNAGLCGLPLKESCFGTGAPPMYHQKQEDKEEEEAEEDEQEVLNGRAVAIGYGSGLLLGLAIAQVIASYKPEWLVKIIGLNKRRKRSDYKDHDGDYKDHDLDAAAADYKDDDDK
B5: AtRLP23-3×FLAG: AtRLP23 (amino acids 1-890) linked to the 3×FLAG peptide; SEQ ID NO: 13 (nucleotide), 14 (protein) (protein)
chain: MSKALLHLHFLSLFLLCCVCHSSIFTLNFHFTGIVACRPHQIQAFTKFTNEFDTRGCNNSDTFNGVWCDNSTGAVAVLQLRKCLSGTLKSNSSLFGFHQLRYVDLQNNNLTSSSLPSGFGNLKRLEGLFLSSNGFLGQVPSSFSNLTMLAQLDLSYNKLTGSFPLVRGLRKLIVLDLSYNHFSGTLNPNSSLFELHQLRYLNLAFNNFSSSLPSKFGNLHRLENLILSSNGFSGQVPSTISNLTRLTKLYLDQNKLTSSFPLVQNLTNLYELDLSYNKFFGVIPSSLLTLPFLAHLALRENNLAGSVEVSNSSTSSRLEIMYLGSNHFEGQILEPISKLINLKHLDLSFLNTSYPIDLKLFSSLKSLRSLDLSGNSISSASLSSDSYIPLTLEMLTLRHCDINEFPNILKTLKELVYIDISNNRMKGKIPEWLWSLPLLQSVTLGNNYFTGFQGSAEILVNSSVLLLYLDSNNFEGALPDLPLSIKGFGVASNSFTSEIPLSICNRSSLAAIDLSYNNFTGPIPPCLRNLELVYLRNNNLEGSIPDALCDGASLRTLDVSHNRLTGKLPRSFVNCSSLKFLSVINNRIEDTFPFWLKALPNLQVLTLRSNRFYGPISPPHQGPLGFPELRIFEISDNKFTGSLPPNYFVNWKASSRTMNQDGGLYMVYEEKLFDEGGYGYTDALDLQYKGLHMEQAKALTSYAAIDFSGNRLEGQIPESIGLLKALIAVNISNNAFTGHIPLSMANLENLESLDMSRNQLSGTIPNGLGSISFLAYINVSHNQLTGEIPQGTQITGQSKSSFEGNAGLCGLPLKESCFGTGAPPMYHQKQEDKEEEEEEEEEEEEVLNGRAVAIGYGSGLLLGLAIAQVIASYKPEWLVKIIGLNKRRKRSDYKDHDGDYKDHDLDAAAADYKDDDDK
modifications: Fusion protein

System: corn protoplasts
Experiment: Calcium burst in transiently transfected corn protoplasts, R-GECO1.2 fluorescence reporter
Type: cell-based, Zea mays
Conditions: 1 μM PpNLP20; for Ca^2+ increase in response to PpNLP20 treatment (R-GECO1.2 fluorescence): transient expression in corn protoplasts
Text: Following ligand (also known as elicitor) binding, PRRs are activated and induce a transient increase of cytosolic Ca^2+ concentration as part of a PTI response. […] In a high-throughput method, the kinetics of PRR-dependent transient variation of cytosolic Ca^2+ concentration can be measured with a fluorimeter or luminometer and in microplate formats of 96 or 384 wells.
Fluorescence was monitored using a fluorimeter equipped with a 100 Hz xenon flash lamp with excitation at 556 nm and emission measured at 585 nm for 100 ms, every 22.6 seconds for 42 minutes.
All of the AtRLP23 constructs have an operably linked 2×35S+Ω promoter construct (SEQ ID NO: 72) and an operably linked rbcS terminator (SEQ ID NO: 73)
Fluorescence was monitored using a fluorimeter equipped with a 100 Hz xenon flash lamp with excitation at 556 nm and emission measured at 585 nm for 30 ms, every 20.2 seconds for 40 minutes. For each fluorescence measurement, the transient change in R-GECO1.2 fluorescence (ΔF) are calculated from background corrected intensity values as (F-Fo), where F represents the average fluorescence intensity of the a batch of protoplasts treated with elicitor, and Fo represents the average fluorescence intensity of the same batch of protoplasts treated with a control solution that lacks the elicitor but is otherwise identical or essentially identical in composition to the solution comprising the elicitor.

Row | Molecule | responsiveness to PpNLP20 treatment compared to AtRLP23-3×FLAG (total transient increase of fluorescence) (Example 3, FIG. 4, 40 minutes, 384-well) | Ca^2+ increase in response to PpNLP20 treatment (R-GECO1.2 fluorescence)
1 | B1 | reduced responsiveness | 
2 | B2 |  | Ca^2+ increase
3 | B3 |  | Ca^2+ increase
4 | B4 |  | Ca^2+ increase
5 | B5 |  | significant Ca^2+ increase

Reference: patent US20220251595A1, “ENGINEERED ATRLP23 PATTERN RECOGNITION RECEPTORS AND METHODS OF USE” (priority 2019, published 2022)
